Results reported in the nanobody polyreactivity screen of Harvey et al. (2022).

Assay: yeast display, Sf9 membrane polyspecificity reagent, FACS + sequencing; frameworks hold sequencing errors
In short: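 Synthetic nanobody libraries on Saccharomyces cerevisiae BJ5465 were galactose-induced for 36–48 hours, stained 1 hour at 4 °C with 10% biotinylated, detergent-solubilized Sf9 membrane reagent and enriched on streptavidin microbeads. FACS then separated cells into low and high (top ~1%) gates by anti-HA (expression) and streptavidin (reagent binding) fluorescence. Genes were colony-PCR amplified, MiSeq 2 × 250 sequenced and CDR-length filtered. A clone's polyreactivity label is that of its gate of origin.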

Sequence | polyreactivity (PSR sort gate)
QVQLVESGGGLVQAGGSLRLSCAASGRTFPRYAMGWYRQAPGKERELVAAITRRGSSTYYADSVKGRFTISRDNAKNTVYLQMNSLKPEDTAVYYCATSYHGYYYRYDYWGQGTQVTVSS | high polyreactivity
QVQLVESGGGLVQAGGSLRLSCAASGFIFGGYAMVWYRQAPGKERELVAAISSSGGSTYYADSVTGRFTISRDNAKNTVSLQMNSLKPEDTAVYYCAIVGWSRRYYYWGQGTQVTLSS | high polyreactivity
QVQLVESGGGLVQAGGSLRLSCAASGSIFTGYAMGWYRQAPGKERELVAAISRSGGRTYYADSVKGRFTISRDNAKYTVYLQMNRLKPEDTAVYYCNSVVSPWNQGYYYWGQGTQVTVSS | high polyreactivity
QVQLVESGGGLVQAGGSLRLSCAASGSIFTLNAMGWYRQAPGKERELVASISKNGGRTYYADSVKGRFTISRDNAKNTVYLQMNCLKPEDTAVYYCAARYYFTPSDGRRYDYWGQGTQVTVSS | high polyreactivity
QVQLVESGGGLVQAGGSLRLSCASSGLIFYKNAMGWYRQAPGKVRELVAAISWRDGRTYYADSVKGRFTISRDNAKNTVYLQMNSLKPEDTAVYYCNAVRGITYYDYFYWGQGTQVTVSS | high polyreactivity
QVQLVESGGGLVQAGGSLRLSCAASGIIFGWYAMGWYRQAPGKERELVAAISSGGRTNYADSVKGRFTISRDNAKNTVYLQMNSLKPEDTEVYYCAAAYIRGSRRYDYCGQGTQVTVSS | high polyreactivity
QVQLVESGGGLVQAGGSLRLSCAASGRIFGSYTMGWYRQAPGKERELVAGISRRGGSTYYADSVKGRFTISRDNAKNTVYLQMNSLKPEDTAVYYCAAEVYYFYFYIMDYWGQGTQVTVSS | high polyreactivity
QVQLVESGGGLVQAGGSLRLSCAASGRTFRYYAMVWYRQAPGKEREWVASISSSGARTYYADSVKGRFTISRDNAKNTVYLRMNSQKPEDSAVYYCAASQRSGHPSYDYWGQGTQVTVSS | high polyreactivity
QVQLVESGGGLVQAGGSLRLSCAASGSTFRLNAMGWYRQAPGKERELVAAISWTGGSTYYADSVKGRFTISRDNAKNTVSLQMNSLKPEDSAVYYCATVSYYDRYDYDYWGQGTQVTVSS | low polyreactivity
QVQLVESGGGLVQAGGSLRLSCAASGSTFSDYVMGWYRQAPGKEREFVDAISWTGGITYYADSVKGRFTISRDNAKNTVYLQMNSLKPEDTAVYYSAAKRKYYGNGYWGQGTQVTVSS | high polyreactivity
QVQLVESGGGLVQAGGSLRLSCAASGSTFYPYAMGWYRQAPGKERELVAAISYSGGSTYYADSVKGRFTISRDNAKNTVYLQMNSLKPEDSAVYYCAAYYRRQFTSYGNYYYWGQGTQVTLSS | high polyreactivity
QVQLVESGGGLVQAGGSLRLSCAASGFTFAWNAKGWYRQAPGKERELVAAINRSGGSTKYADSVKGRFTISRDNAKNTVYLQMNSLKPEDTAVYFCNKYQLVRTYGSYSYYYWVQGTQVTVSS | high polyreactivity
QVQLVESGGCLVQAGGSLRLSCPASGFTLPANGMGWYRQAPGKERELVAAISFIAGSTYYADSVKGRFTISRDNAKNTVYLQMNSLKPEDTEVYYCATQFPPSTIYDYWGQGSQVTVSS | low polyreactivity
QVQLVESGGGLVQAGGSLRLSCAASGSIFTTYAMGWYRQAPGKERELVAAISSTSGSTYYADSVKGRFTISRDNAKNTVYLQMNSLKPEDTAVYYCAARGGYWGQGTQVTVSS | low polyreactivity
QVQLVESGGGLVQSGGSLRLSCGASGLIYGPNSMGWYRQAPAKERELVAAITKSGDSTYYADSVKGRFTISRDNAKNTVYLQMNSLKPEDTAVYYCAAEWYPYPWGYGYWGQGTQVTVSS | low polyreactivity
QVQLLESGGGLVQAGGSLRLSCAASGITFSRNAMGWYRQAPGKERELVATITSGGSTNYADSVKGRFTITRDNAMNTVYLQMISLKPEDTAVYYCYAVWNTFISGRSYEYWGQGTQVTVSS | low polyreactivity
QDQLVESGGGLVQAGGSLRLSCAASGGIFPVNALGWYRQAPVKERELVATITYDGGNTYYADSVKGRFTISRDNAKKTVYLQMNSLKREDTAVYYCAKDSLSFYGYISYIGYGYDYWGQGTQVTVSS | low polyreactivity
